Values of other authors in PMC8467547.

Experiments:
IFNAR2 (Homo sapiens) = IFNAR2 (Homo sapiens) (UniProt P48551)
IFNAR1 (Homo sapiens) = IFNAR1 (Homo sapiens) (UniProt P17181)
UniProt P17181, sequence (P17181 28-436): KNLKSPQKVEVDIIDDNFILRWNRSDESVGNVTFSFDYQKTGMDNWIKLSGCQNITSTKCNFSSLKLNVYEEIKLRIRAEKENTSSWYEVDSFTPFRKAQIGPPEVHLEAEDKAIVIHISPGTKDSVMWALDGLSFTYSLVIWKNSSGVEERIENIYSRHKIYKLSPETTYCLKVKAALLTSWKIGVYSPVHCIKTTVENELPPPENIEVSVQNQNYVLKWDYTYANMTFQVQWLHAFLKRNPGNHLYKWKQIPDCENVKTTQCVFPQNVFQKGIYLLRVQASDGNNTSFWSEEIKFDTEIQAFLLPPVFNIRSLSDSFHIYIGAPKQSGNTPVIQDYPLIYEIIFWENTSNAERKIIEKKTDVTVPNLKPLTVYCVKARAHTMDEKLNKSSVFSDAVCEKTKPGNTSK

UniProt P48551, sequence (P48551 27-243): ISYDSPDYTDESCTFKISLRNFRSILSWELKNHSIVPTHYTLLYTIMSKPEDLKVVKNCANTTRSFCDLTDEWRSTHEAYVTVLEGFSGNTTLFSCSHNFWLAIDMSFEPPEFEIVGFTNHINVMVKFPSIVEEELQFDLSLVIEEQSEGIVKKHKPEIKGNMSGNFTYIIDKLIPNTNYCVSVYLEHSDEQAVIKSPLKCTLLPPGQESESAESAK

Kd (IFNAR2 (Homo sapiens)): 0.2 nM
Kd (IFNAR1 (Homo sapiens)): 100 nM
Substance: IFN-beta (from UniProt P01574)
